From paper PMC4436786
Values joined by “and” are separate entries in the source; they are usually repeats but may differ in a detail not shown here. Equal entries are not always repeated.

Key:
[1] = target: AtSfh5 nodulin (soluble, recombinant) (Arabidopsis thaliana); test: SEC
[2] = target: AtSfh8 nodulin (soluble, recombinant) (Arabidopsis thaliana); test: SEC
[3] = target: His-tagged AtSfh1 nodulin (recombinant, solubilized in 8 M urea) (Arabidopsis thaliana); test: SDS-PAGE
[4] = target: His-tagged AtSfh3 nodulin (soluble, recombinant) (Arabidopsis thaliana); test: SEC
[5] = target: mRFP-AtSfh1 nodulin (WT) (Arabidopsis thaliana); test: SEC
[6] = target: mRFP-AtSfh1^E485P,Q534P nodulin (Arabidopsis thaliana); test: SEC
[7] = target: myc-tagged AtSfh1 nodulin (Arabidopsis thaliana); test: SEC

His-tagged AtSfh3 nodulin (soluble, recombinant) (domain or fragment), sequence (Q93ZE9 whole entry, the tested form may be a part): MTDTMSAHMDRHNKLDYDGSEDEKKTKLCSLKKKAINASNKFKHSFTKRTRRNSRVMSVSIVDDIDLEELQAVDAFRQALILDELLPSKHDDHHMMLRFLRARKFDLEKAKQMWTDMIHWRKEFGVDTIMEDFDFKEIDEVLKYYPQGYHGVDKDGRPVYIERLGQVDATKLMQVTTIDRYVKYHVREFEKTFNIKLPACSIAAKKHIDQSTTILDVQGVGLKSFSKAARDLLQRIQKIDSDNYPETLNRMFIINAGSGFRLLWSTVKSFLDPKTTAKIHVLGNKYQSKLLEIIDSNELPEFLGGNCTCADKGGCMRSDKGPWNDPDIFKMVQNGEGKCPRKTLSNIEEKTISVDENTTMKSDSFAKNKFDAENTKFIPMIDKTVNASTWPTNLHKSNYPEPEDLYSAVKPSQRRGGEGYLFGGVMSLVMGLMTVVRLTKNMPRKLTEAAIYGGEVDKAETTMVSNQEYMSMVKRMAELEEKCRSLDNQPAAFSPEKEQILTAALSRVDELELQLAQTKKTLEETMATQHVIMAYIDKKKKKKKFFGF
AtSfh5 nodulin (soluble, recombinant) (domain or fragment), sequence (Q8GXC6 whole entry, the tested form may be a part): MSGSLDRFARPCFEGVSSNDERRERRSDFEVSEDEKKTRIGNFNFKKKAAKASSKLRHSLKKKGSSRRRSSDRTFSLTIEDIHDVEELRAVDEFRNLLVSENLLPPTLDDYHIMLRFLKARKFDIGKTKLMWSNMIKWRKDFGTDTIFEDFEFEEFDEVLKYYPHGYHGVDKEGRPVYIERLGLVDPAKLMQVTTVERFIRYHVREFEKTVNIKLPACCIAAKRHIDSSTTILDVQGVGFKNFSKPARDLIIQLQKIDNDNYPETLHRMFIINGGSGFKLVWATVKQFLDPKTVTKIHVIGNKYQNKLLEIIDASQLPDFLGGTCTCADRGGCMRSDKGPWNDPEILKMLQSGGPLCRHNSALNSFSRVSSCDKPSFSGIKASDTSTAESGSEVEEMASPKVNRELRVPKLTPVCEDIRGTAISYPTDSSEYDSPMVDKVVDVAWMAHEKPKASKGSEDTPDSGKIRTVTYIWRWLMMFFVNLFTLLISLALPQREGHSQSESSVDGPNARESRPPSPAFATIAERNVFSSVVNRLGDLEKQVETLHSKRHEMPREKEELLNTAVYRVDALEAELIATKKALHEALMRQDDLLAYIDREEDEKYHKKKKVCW
AtSfh8 nodulin (soluble, recombinant) (domain or fragment), sequence (F4IHJ0 whole entry, the tested form may be a part): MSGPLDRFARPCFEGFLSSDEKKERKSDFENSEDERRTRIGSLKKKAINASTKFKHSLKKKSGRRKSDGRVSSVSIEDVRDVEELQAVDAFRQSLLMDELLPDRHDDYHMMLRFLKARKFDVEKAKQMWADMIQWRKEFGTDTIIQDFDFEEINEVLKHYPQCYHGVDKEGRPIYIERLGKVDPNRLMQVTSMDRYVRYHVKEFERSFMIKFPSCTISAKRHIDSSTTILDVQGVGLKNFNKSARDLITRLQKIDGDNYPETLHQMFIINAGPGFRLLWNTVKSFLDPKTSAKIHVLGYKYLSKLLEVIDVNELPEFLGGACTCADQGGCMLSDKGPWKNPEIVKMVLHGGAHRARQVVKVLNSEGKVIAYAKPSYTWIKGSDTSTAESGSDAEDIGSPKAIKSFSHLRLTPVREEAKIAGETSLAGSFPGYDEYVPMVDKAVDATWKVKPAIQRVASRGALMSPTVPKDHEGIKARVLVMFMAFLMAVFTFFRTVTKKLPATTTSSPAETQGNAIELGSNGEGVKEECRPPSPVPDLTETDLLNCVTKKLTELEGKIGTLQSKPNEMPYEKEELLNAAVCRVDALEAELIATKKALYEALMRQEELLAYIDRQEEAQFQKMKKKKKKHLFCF
His-tagged AtSfh1 nodulin (recombinant, solubilized in 8 M urea) (domain or fragment), sequence (F4JLE5 whole entry, the tested form may be a part): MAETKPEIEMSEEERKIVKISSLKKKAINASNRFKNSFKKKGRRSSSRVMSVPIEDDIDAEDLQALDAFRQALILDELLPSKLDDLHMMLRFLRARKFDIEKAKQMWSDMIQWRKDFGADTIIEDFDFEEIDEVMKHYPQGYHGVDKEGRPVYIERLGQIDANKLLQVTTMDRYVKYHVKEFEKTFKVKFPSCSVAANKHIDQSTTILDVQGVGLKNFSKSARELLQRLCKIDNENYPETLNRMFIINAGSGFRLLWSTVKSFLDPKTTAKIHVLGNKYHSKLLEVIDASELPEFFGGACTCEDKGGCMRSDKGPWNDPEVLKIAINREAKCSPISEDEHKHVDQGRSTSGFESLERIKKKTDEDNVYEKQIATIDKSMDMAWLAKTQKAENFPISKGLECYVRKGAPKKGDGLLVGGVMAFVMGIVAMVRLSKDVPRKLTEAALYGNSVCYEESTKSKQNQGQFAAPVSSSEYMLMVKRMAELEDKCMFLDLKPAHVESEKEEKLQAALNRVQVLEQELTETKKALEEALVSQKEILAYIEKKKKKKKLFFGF

AtSfh5 nodulin (soluble, recombinant) (domain or fragment)
stoichiometry N [1]: 6

AtSfh8 nodulin (soluble, recombinant) (domain or fragment)
stoichiometry N [2]: 6

His-tagged AtSfh1 nodulin (recombinant, solubilized in 8 M urea) (domain or fragment)
stoichiometry N [3]: 8

His-tagged AtSfh3 nodulin (soluble, recombinant) (domain or fragment)
stoichiometry N [4]: 6

mRFP-AtSfh1 nodulin (WT) (domain or fragment)
stoichiometry N [5]: 4

mRFP-AtSfh1^E485P,Q534P nodulin (domain or fragment)
stoichiometry N [6]: 2

myc-tagged AtSfh1 nodulin (domain or fragment)
stoichiometry N [7]: 6 and 8
